Positions count from the first letter of the chain named.

Six molecules from patent CN116836268A can be followed below.

In the assay the target is Cov-S-His (SARS-CoV-2). Description: SPR, Biacore T200, antibody captured by anti-mouse Fc, Cov-S-His as analyte. (In general: SPR reads the build-up and loss of mass on a sensor chip optically.)

B1: S4B3VH-h2+L1C9VK-mIgG2a (antibody, V domains shown)
VH: QVQLVQSGAEVKKPGSSVKVSCKASGYIFNSYSIHWVRQAPGQGLEWIGAIYPGNGDTSNSQRFKGKATITADKSASTAYMELSSLRSEDTAVYYCARDGYDDSYGLDYWGQGTTVTVSS
VL: DIQLTQSPSTLSASVGDRVTITCRASQNIGGWLAWYQQKPGKAPNLLIYQASTLESGVPSRFSGSGSGTEFTLTISSLQAEDFATYHCQQYSGFPWTFGQGTKVEIKR
By Kd is commonly meant the constant that tells how readily two partners part at equilibrium. As to B1, the Kd amounted to 5.76 nM. In other words, the single-digit nanomolar range.

B2: S4B3VH-h1+L1C9VK-mIgG2a (antibody, V domains shown)
VH: B1 VH with K67R, A68V, A76T
VL: B1 VL
The molecule B2 registered a Kd of 5 nM.

B3: S4B3VH-h1+L1B2VK-mIgG2a (antibody, V domains shown)
VH: B1 VH with K67R, A68V, A76T
VL: DIQMTQSPSSLSASVGDRVTITCRASQNIHNYLDWYQQKPGKAPKLLIYSASSRETGVPSSFSGSGSGTDFTLTISSLQPEDFATYYCQQFQQIPWTFGQGTKVEIKR
On to B3, for which the dissociation constant Kd worked out at 2.86 nM. This Kd is about 1.7-fold lower than that of the molecule before.

B4: S4B3VH-h1+S4B3VK-h1-mIgG2a (antibody, V domains shown)
VH: B1 VH with K67R, A68V, A76T
VL: DIVMTQSPDSLAVSLGERATINCKASQNVGTNVAWYQQKPGQPPKALIYSASYRYSGVPDRFSGSGSGTDFTLTISSLQAEDVAVYFCQQYNSYPLTFGQGTKLEIKR
For B4, the dissociation constant Kd was 14.5 nM.

B5: S4B3VH-h2+S4B3VK-h1-mIgG2a (antibody, V domains shown)
VH: B1 VH
VL: B4 VL
For the molecule B5, the dissociation constant Kd was determined as 23.9 nM.

B6: S4B3VH-h2+L1B2VK-mIgG2a (antibody, V domains shown)
VH: B1 VH
VL: B3 VL
B6 showed a dissociation constant (Kd) of 3.04 nM.
